The record followed here is the supplement of paper PMC12042874.

± gives the uncertainty stated by the source.

This data set can be described thus: amyloid nucleation score (Sup35N fusion, yeast selection) (log enrichment); library NNK1; higher = more nucleation; inactive = no reads after selection. The method, boiled down: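 The nucleation score equals the log enrichment of output over input reads from DiMSum, centred on the mode score of non-aggregating sequences. It was computed only for sequences with 100 or more input reads. The reads came from Illumina sequencing of plasmid inserts from psi-negative yeast expressing Sup35N fused to peptides of 20 random codons, induced with 100 μM copper sulfate for 24 hours and grown 7 days at 30°C without adenine and uracil.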

As to DPAYEQGGLFEVGTIHCNIK, the amyloid nucleation score turned out to be 0.527 ± 0.46. KLDGVVPDVYLSGRLPQAWL displayed an amyloid nucleation score of 0.205 ± 0.86. In the case of MGLMIMIFWWEDM it was -0.82 ± 0.91. In the case of IQAKKDPTAESQRGCC it was 0.197 ± 0.51; in that of SWFHGLEGVLSHATMSLGFA, 0.1 ± 0.48.

Substance LRVTSFMIMQLDLECPRCQI yielded an amyloid nucleation score of -0.007 ± 0.46.

The substance HITDYRVRT returned an amyloid nucleation score of 1.27 ± 0.41. In the case of NGRLMVGMLHV it was 0.719 ± 0.56; in that of CHLNFMCWPTAQDENMPIFG, -0.09 ± 0.31; in that of CDCTNT, -0.78 ± 1.4. With VKYSVENCMITWDVYMGASL, the amyloid nucleation score is -0.561 ± 0.29. With ELSSLGTCNCFHIRVSWGYM the figure was 0.99 ± 0.37; with YLVILKITGGSDVPTDQMVW, -0.88 ± 0.32; with IHVSENDMELVWLYGVVRI, -0.708 ± 0.9. In the case of NIVFL, the amyloid nucleation score was 0.021 ± 0.55. With YLWADTRCLTGVW the figure was 0.413 ± 1.1.

Substance YWAKGNCYVAFRLKWRYNCG gave an amyloid nucleation score of 1.69 ± 0.64.

In turn, DKCCKLSRD returned an amyloid nucleation score of 0.972 ± 0.58. With IFFYRYYNSHASSGERQNGR the figure was 0.175 ± 0.56; with RLRSLDHWSWDAVMLMRAQL, 0.432 ± 0.34; with GVRVCSMPFAALLAFLLYFS, -1.09 ± 0.76. With MRIIQCRRLFKVCCCFSVCL the figure was 2.28 ± 0.14; with RFYMWYLVLEVLEIGKLADP, -1.04 ± 2.7. Turning to DFENWPVRLWYFKTIFLRS, the amyloid nucleation score is 1.93 ± 0.51. In the case of MSVGSRFTHHIMWTVTKNRV it was 0.424 ± 1; in that of FGDWGCRRRNVSA, -0.269 ± 0.37; in that of FIMVCGSKGLLVALGALE, -0.752 ± 1.3. In the case of MKGARFARS it was 0.91 ± 0.8.

RIKNGLPKGFFGKSLSPMRW: the amyloid nucleation score is -0.161 ± 0.8. In the case of NDRCFIGPWRSSRPGDFSGH it was -0.043 ± 1.4.

As for DGSVGFLMLEVCLWHSFLAC, the amyloid nucleation score entry is “inactive”. On to VFTFLSMLRWVIFCNVVGVD, for which the amyloid nucleation score entry is “inactive”. VNVITCLY registered an amyloid nucleation score of -1.33 ± 1.4.

The substance LSIFVF had an amyloid nucleation score of 1.75 ± 0.25.

In turn, MFVDFTDVRMVYLSLCVYML came in with an amyloid nucleation score of 1.25 ± 0.093. With GIIFGMKVGWK the figure was 0.385 ± 0.31. With STEVGYSFCHGGMSRTVCMC the figure was 1.45 ± 0.68; with YFKFRGDDCENYWSVSGNEA, 0.111 ± 1.2; with GCFEFVCEVAVGVSLDYSYL, -0.085 ± 0.28. Turning to RWCGKPRICFSISEAVDKLH, the amyloid nucleation score was -0.2 ± 0.21.

Consider DFRKDWYWESPASRFFTNEV, for which the amyloid nucleation score is 0.44 ± 0.53. As to ISNLWYNCCGIRPS, the amyloid nucleation score is 5.86 ± 0.047. In the case of VRYSL it was -0.42 ± 0.35; in that of IKVAN, 1.1 ± 0.47; in that of RVEVSGVLALANPLVPF, 0.92 ± 0.6. RCIPLNNNFYASKQLLMSME showed an amyloid nucleation score of 0.259 ± 0.62.

With GLLTMIPKDYNCRISYLVHT, the amyloid nucleation score was 0.015 ± 0.64. With DKPIV the figure was -0.09 ± 0.88. In the case of RIVKSGGFNR it was -0.089 ± 0.39. Regarding SRVNDQCVLSSWR, the amyloid nucleation score came to 0.47 ± 0.5. With AWVYSYSRSILMWGVTGLWV the figure was 0.77 ± 0.61. In the case of LWYTFMSLHLGTVLEVRK, the amyloid nucleation score entry was “inactive”. Consider FCVGYRCWMYN, for which the amyloid nucleation score is -0.086 ± 0.25.

In turn, DVNNIHLRKLTDCHI displayed an amyloid nucleation score of 1.61 ± 0.36. With FLVNFGWRFAD the figure was 1.14 ± 0.32; with FVCYSLNSSSFMIPYWILLK, -0.293 ± 0.46; with DAADMTGLFNRLLCVFEYVW, 0.797 ± 0.66. With RMYLGVLIRHWIDSFAFGMQ the figure was 0.193 ± 0.32; with TYHFCLFMSYSGSNRAALCN, -0.212 ± 1; with MISDFSNVIMLVCIPCFLYV, 5.13 ± 0.067. In the case of WFRRLVTFSYNGWSYLSD it was -0.779 ± 0.73; in that of VACNIGHSYVNYYCRGIILC, 0.586 ± 0.4; in that of VYILLRVRVWSFYVVVVSRF, 0.484 ± 0.28.

In turn, IYNWH came in with an amyloid nucleation score of 0.849 ± 0.66. In the case of SSAGMTRTKNGPPC it was 2.89 ± 0.082; in that of ASGSI, -1.32 ± 2.4. With KEYNLLHDL the figure was -0.691 ± 1.7; with FYAVVEQIKFMRSLNLNLLN, -0.08 ± 0.36. With LFYTCRVDQGPVWGLLTKRR the figure was 0.344 ± 0.77. Regarding VFAVERCDFSLRPNVMLVSY, the amyloid nucleation score came out at 1.08 ± 0.92. Turning to MMLGSGFLCLLMYDGVRFLL, the amyloid nucleation score was -0.839 ± 0.62. In the case of QVLDTGVVTDWSVIPFGRSY it was 0.483 ± 0.65; in that of SDDLRMHTHGGGYSGFWKGY, “inactive”.

Regarding ERYSMLDGFGSDLNWIIYNN, the amyloid nucleation score amounted to 0.978 ± 0.71. In the case of APSNNFCNNGLMFRYVRPGD it was 2.81 ± 0.21; in that of VCVHDLCSLIQLGAYVMRET, 0.383 ± 0.29. With FKLAIVSIFCINSWYNESLR the figure was 5.866 ± 0.049; with YAFGHFCTDADSFCGRCVIL, 0.09 ± 0.76; with GFHEIMLYYSYIKVLVIDSH, 0.387 ± 0.75. In the case of VPFLWLRLCRRCYLTMGCSI it was -0.491 ± 0.97; in that of THGGCCQGFQPTQLQSLTHQ, 0.367 ± 0.6; in that of HDFPIR, “inactive”. As to ALRAP, the amyloid nucleation score was -0.383 ± 0.62. As to PGTSARRIDTKDVPYPFIPS, the amyloid nucleation score was found to be 1.16 ± 0.51. With KAEYSDLASFGCHGHEEGGG the figure was 0.793 ± 1. With IRSQKRYLCSGSLLCKVSRR the figure was 1.38 ± 0.51; with CLVHVRVSHNWDVTMMFGVR, 0.555 ± 0.24; with GGYVIF, 0.212 ± 0.56. The substance FENDWNLINLLGF had an amyloid nucleation score of 1.49 ± 0.55.

Regarding FVGRCLNMKTCRRCLLSWDN, the amyloid nucleation score was determined as 0.128 ± 1.6.

Take TNRKIQSLPTVCVCIRGSSG: the amyloid nucleation score turned out to be 2.95 ± 0.11.

The substance PATMDLIVVPWITVLKEIN yielded an amyloid nucleation score of -0.451 ± 0.89. With RSPFWRDVKNKITVSPIFAN the figure was 0.945 ± 0.61; with SCLWGMRLKL, -0.366 ± 0.8. In the case of SSDRAYVFCTRNMEVREGSK it was -0.835 ± 0.72; in that of QKTASILLPVRYFWCEKSWM, -0.667 ± 1.5. With LVLCSFYYDKAWSPESCLME the figure was -0.258 ± 0.62; with CSYQNCLVN, -0.795 ± 0.29.

Take IRGCTAC: the amyloid nucleation score was 0.958 ± 0.76. With LRFRFSLANAEGLMLPVRHK the figure was -0.216 ± 0.48. In turn, YIGVRCG gave an amyloid nucleation score of 0.026 ± 0.51.

For the substance TWNTL, the amyloid nucleation score was -0.343 ± 0.4. Turning to ERPSRN, the amyloid nucleation score turned out to be 0.22 ± 0.93. With QQLYINC the figure was 0.199 ± 0.47; with QYFKPGVASPSGDPVFKKKV, -0.404 ± 0.43.
